In the supplement of paper PMC10724198:
± gives the standard deviation of the averaged measurements.

What follows are sequences tested on Saccharomyces cerevisiae (assay: protein stability index of tFT-peptide fusion (C-terminal peptide) (PSI (0-1 scale)); higher = more stable (slower turnover)). Conditions: genetic background: wild type; temperature: 30 C.
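Also: PSI is a weighted mean of sequencing reads over stability bins, variants kept only with over 10 reads, mCherry proximal and sfGFP distal, peptide attached via GGGS linker.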

Sequence | protein stability index
RLLPPSLAQRNN | 0.5909 ± 0.0011
LLFRSPPPTVHS | 0.769 ± 0.088
RSLRLPPRTPLP | 0.652 ± 0.04
PLPVLFFFSACS | 0.661 ± 0.043
VGRGGGVSLGGR | 0.671 ± 0.082
LLSVSFVGWPLT | 0.634 ± 0.062
LPRPHARPPLSS | 0.583 ± 0.066
GVVGGGVQGGMG | 0.624 ± 0.0046
ARSTGATSEHKQ | 0.667 ± 0.062
IVNLAQAEFVVT | 0.645 ± 0.039
PVGDWPRGKGAD | 0.684 ± 0.13
PVWLLASSLADL | 0.722 ± 0.039
LHRFTYAEVVWA | 0.536 ± 0.031
GVGGGVRLVVSR | 0.633 ± 0.052
CYGVGTVGLRRG | 0.712 ± 0.048
SSSDPYLLFCHS | 0.741 ± 0.37
PCSRVICASEFT | 0.701 ± 0.045
PPLLALSASRVT | 0.698 ± 0.017
PSLLPSRPPRSI | 0.648 ± 0.034
LGYRCETNYVPD | 0.631 ± 0.023
GLRLHVQCFGRV | 0.699 ± 0.024

Sequence | protein stability index
APAAPLPVVSPD | 0.752 ± 0.073
TPKAMHPNPNTL | 0.6458 ± 0.0024
TGTPGAVRRGGA | 0.727 ± 0.1
SPHRQIRKRFEK | 0.714 ± 0.026
SSSRCRVGHAGW | 0.67 ± 0.0096
LDVQPVHPVDPE | 0.778 ± 0.013
QTGQVSRVSPHD | 0.672 ± 0.031
QPRVSTSGHSAR | 0.722 ± 0.016
GKILSNNQIFKR | 0.702 ± 0.057
VIVHFIWPSVGR | 0.652 ± 0.03
KGKRMSRLYSCG | 0.667 ± 0.012
HSVVANECHQGQ | 0.766 ± 0.11
VSMPIVPWPLLQ | 0.54 ± 0.016
YLSLPTSISLSS | 0.693 ± 0.016
RAKSTFRVHSHM | 0.6645 ± 0.005
VLLAAFLLPGLR | 0.634 ± 0.033
SPITSLSGGTKR | 0.631 ± 0.064
PLPFSTSPYAGR | 0.675 ± 0.011
SWYAGGRRWIVV | 0.608 ± 0.022
PPHLPPPPSPSV | 0.6729 ± 0.0053
ARLGSVFLDPSG | 0.64833 ± 0.0003

Sequence | protein stability index
LLTTGGRWWRRP | 0.669 ± 0.03
FYRPGNVLDGVF | 0.705 ± 0.075
SPPSLLATVYFF | 0.7065 ± 0.0015
SSGALLLLTGFM | 0.681 ± 0.013
LFWARLSLVSLS | 0.495 ± 0.041
RHPTITAPTPTP | 0.748 ± 0.063
GGGWGRVALGQG | 0.612 ± 0.015
ELKGHIPFTLSR | 0.703 ± 0.04
TTLNAETCFPLS | 0.702 ± 0.043
FALYVHHSLSFG | 0.685 ± 0.02
GRGTLLGLGLYA | 0.692 ± 0.078
RCFSLFYIYCPA | 0.525 ± 0.0065
SVLSPTLESLIF | 0.681 ± 0.032
VQLCQGWIGSES | 0.676 ± 0.0089
RADAPPPTRPEA | 0.744 ± 0.011
PAACPTRTCLYP | 0.719 ± 0.045
VSPLRGSRAPFP | 0.744 ± 0.068
VGVVLNEPYSQE | 0.702 ± 0.011
HSTPPSPAPPTA | 0.675 ± 0.062
CYLGSGFLFFLL | 0.5209 ± 0.00091
FRPLPFYRLSPP | 0.727 ± 0.021

Sequence | protein stability index
SWCQFAVGGIIH | 0.664 ± 0.013
GFLGVDLVYVVH | 0.567 ± 0.033
DFLSLPPISPLL | 0.787 ± 0.15
SPASPPLPAPPP | 0.68 ± 0.032
SFCCISSFPCWR | 0.751 ± 0.016
YTKIIPIFPEQL | 0.631 ± 0.03
RGEPPSAKEIAR | 0.727 ± 0.045
PQYLALLRTSIP | 0.739 ± 0.043
PPLPPPLPHRPL | 0.716 ± 0.078
PLHPPATPAATT | 0.69 ± 0.025
LPRPPPLAGPPL | 0.734 ± 0.013
GIGRRIGSELSF | 0.668 ± 0.047
DGCSWRSGLVWL | 0.69506 ± 0.00062
PSSSLAPPPGRL | 0.572 ± 0.038
CFGFRVFGFVFF | 0.561 ± 0.075
NIKKNQRKEASK | 0.698 ± 0.039
PPPISPRPPRRA | 0.708 ± 0.0094
AVVSRVPRLFRL | 0.724 ± 0.045
